Assay results: publication PMC2141704

Target: GST-mouse ZO-1 (1–862 amino acids) (mouse) (UniProt P39447)
Experiment: pull-down

Sequence of UniProt P39447 (P39447 1-862): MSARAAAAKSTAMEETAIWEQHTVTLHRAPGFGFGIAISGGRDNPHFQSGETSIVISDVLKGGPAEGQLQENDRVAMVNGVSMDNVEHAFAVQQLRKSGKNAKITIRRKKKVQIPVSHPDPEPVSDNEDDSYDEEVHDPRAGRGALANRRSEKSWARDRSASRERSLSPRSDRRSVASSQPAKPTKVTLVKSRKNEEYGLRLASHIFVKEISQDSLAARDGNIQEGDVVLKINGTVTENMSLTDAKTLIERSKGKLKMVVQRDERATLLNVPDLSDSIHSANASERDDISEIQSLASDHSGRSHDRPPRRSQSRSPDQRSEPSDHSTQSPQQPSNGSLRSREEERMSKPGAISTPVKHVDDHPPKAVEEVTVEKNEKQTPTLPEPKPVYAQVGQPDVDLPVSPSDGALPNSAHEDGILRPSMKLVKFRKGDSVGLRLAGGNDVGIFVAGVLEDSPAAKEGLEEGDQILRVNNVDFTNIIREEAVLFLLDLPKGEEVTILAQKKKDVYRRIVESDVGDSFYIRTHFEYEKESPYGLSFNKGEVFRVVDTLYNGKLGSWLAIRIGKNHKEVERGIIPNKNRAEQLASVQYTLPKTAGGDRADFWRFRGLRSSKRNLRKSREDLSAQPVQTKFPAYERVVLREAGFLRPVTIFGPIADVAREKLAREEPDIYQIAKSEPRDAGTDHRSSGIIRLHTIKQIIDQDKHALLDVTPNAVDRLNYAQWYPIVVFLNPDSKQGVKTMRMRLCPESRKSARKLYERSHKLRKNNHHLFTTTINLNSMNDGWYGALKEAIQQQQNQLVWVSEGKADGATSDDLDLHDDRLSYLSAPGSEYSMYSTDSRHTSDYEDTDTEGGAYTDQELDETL

Substance: MBP-AF-6 (36–206 amino acids) (domain or fragment)
- Kd: 260 nM
